The test has as its target T1, β2-adrenergic receptor (β2-AR) (Homo sapiens (assumed), UniProt P07550).
T1 construct: β2-adrenoceptor (β2-AR), crystallised in the active state with a catecholamine-type agonist (super-epi or super-iso) and Nb6B9; Conference abstract (poster P20) with no methods; also called ß2-AR
As to the kind of experiment: crystal structure; co-crystal structures of β2-AR with super-epi or super-iso, bound to Nb6B9; active state of the receptor (Figure 17 legend). The following applies: both partners purified.

Consider one molecule from PMC6958382, “27th Annual GP2A Medicinal Chemistry Conference” (Pharmaceuticals, 2019).

B1: Nb6B9 (VHH)
VHH: QVQLQESGGGLVQAGGSLRLSCAASGSIFALNIMGWYRQAPGKQRELVAAIHSGGTTNYANSVKGRFTISRDNAANTVYLQMNSLKPEDTAVYYCNVKDFGAIIYDYDYWGQGTQVTVSS
Take B1: the binding result is on record as “binds”.
